In patent publication US20190248907A1 (Merck KGaA, published 2019):

B1: oa CS06 (antibody, V domains shown)
VH: QVQLQQSGAEVKKPGSSAKVSCKASGGTFSSNAISWVRQAPGQGLEWMGGIIPIFGTAIYAQKFQGRVTITADESTSTAYMELSSLRSEDTAVYYCARDQRGYYYYYYYGMDVWGQGTTVTVSS
VL: QLVLTQSPSVSVAPGKTARITCGGNNIRNVGVHWYQKKPGQAPILVVYDDDDRPSGVPERFSGSNSGNTATLTISRVEAGDEADYYCQVWDSATDQRVFGGGTKLTVL
notes: also called one-armed CS06; anti-c-MET clone CS06 (monovalent one-armed format); copies: 1 + 1
B2: biparatopic bispecific heterodimeric immunoglobulin molecule comprising Fab fragments CS06 and B10v5 (bispecific antibody)
chain 1: QLVLTQSPSVSVAPGKTARITCGGNNIRNVGVHWYQKKPGQAPILVVYDDDDRPSGVPERFSGSNSGNTATLTISRVEAGDEADYYCQVWDSATDQRVFGGGTKLTVLGQPKAG
chain 2: QVQLQQSGAEVKKPGSSAKVSCKASGGTFSSNAISWVRQAPGQGLEWMGGIIPIFGTAIYAQKFQGRVTITADESTSTAYMELSSLRSEDTAVYYCARDQRGYYYYYYYGMDVWGQGTTVTVSS
chain 3: EPVLTQPPSVSVAPGETATIPCGGDSLGSKIVHWYQQRPGQAPLLVVYDDAARPSGIPERFSGSKSGTTATLTISSVEAGDEADYFCQVYDYHSDVEVFGGGTKLTVLGQPKAA
chain 4: not shown
B3: CS06 IgG1 (antibody, V domains shown)
VH: QVQLQQSGAEVKKPGSSAKVSCKASGGTFSSNAISWVRQAPGQGLEWMGGIIPIFGTAIYAQKFQGRVTITADESTSTAYMELSSLRSEDTAVYYCARDQRGYYYYYYYGMDVWGQGTTVTVSS
VL: QLVLTQSPSVSVAPGKTARITCGGNNIRNVGVHWYQKKPGQAPILVVYDDDDRPSGVPERFSGSNSGNTATLTISRVEAGDEADYYCQVWDSATDQRVFGGGTKLTVLG
notes: Bivalent IgG1; also called anti-c-MET clone CS06

biological target: T1, human c-MET ECD (human, UniProt P08581 25-932); test: not stated (summary of antibody properties, FIG. 6)
T1 construct: also called recombinant human c-MET ECD; human c-MET ECD-His
T1 sequence (P08581 25-932 limits assumed): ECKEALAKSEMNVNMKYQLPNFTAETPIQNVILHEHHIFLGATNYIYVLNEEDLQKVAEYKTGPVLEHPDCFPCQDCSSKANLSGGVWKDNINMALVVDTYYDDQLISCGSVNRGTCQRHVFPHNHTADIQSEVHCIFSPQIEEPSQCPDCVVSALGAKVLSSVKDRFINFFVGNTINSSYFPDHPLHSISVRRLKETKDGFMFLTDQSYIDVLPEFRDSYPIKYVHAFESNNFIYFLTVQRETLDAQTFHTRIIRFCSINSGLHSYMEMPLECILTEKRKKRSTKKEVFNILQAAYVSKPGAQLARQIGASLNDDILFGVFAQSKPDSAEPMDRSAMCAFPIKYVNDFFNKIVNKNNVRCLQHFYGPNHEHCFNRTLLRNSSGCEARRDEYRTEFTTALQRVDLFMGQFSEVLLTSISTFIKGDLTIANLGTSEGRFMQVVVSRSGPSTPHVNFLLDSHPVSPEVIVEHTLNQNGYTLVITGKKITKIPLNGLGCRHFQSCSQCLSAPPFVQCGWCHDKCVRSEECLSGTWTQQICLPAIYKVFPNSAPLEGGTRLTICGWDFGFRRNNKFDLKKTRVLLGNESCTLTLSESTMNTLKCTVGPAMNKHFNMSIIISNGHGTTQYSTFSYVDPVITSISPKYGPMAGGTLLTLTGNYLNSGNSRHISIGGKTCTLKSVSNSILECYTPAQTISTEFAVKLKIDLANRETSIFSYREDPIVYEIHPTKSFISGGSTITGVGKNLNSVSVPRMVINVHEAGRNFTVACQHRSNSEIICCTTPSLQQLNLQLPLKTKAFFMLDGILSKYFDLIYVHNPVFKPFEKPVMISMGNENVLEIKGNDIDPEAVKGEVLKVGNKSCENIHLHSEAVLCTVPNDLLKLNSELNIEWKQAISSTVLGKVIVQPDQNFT

**Q.** For B1, which Kd is on record?
**A.** Its Kd is ~0.3 nM.

**Q.** B2 was tested. Which Kd did it give?
**A.** Its Kd is ~0.0196 nM.

**Q.** Which Kd does the source give for B3 here?
**A.** The Kd was ~0.134 nM.
